Source: patent publication US20260062487A1 (GRITSTONE BIO, published 2026)

Experiments:
CD3 on CD3+ Jurkat cells = target: T1, CD3 on CD3+ Jurkat cells (human, UniProt P07766 23-207); test: flow cytometry, anti IgG PE, CD3+ Jurkat cells
T1 construct: whole, on cells
Description: Increasing concentrations of the antibodies were incubated with CD3(+) and CD9(−) Jurkat cells. Binding was determined by flow cytometery using an anti IgG-PE antibody for detection.

[1] = target: T2, HLA-PEPTIDE target A*01:01_… (G2) on cells (human); test: flow cytometry, anti IgG PE, A375 9mer cells (1e6 copies per cell)
T2 construct: whole, on cells; also recovered from cell lysates in the IP-MS experiment; also called G2 pHLA; G2 target
Description: A375 transduced with luciferase alone served as the negative control. […] Binding was determined by flow cytometery using an anti IgG-PE antibody for detection.

[2] = target: T3, biotinylated refolded G2-pHLA (A*01:01/b2m/…) (human, biotinylated at the C-terminal AviTag); test: BLI (ForteBio Octet HTX), biotinylated G2-pHLA captured on streptavidin SAX biosensor, antibody in solution, 1:1 kinetic model
T3 construct: Soluble complex caught on streptavidin sensors or MSD plates; also called G2-peptide A*01:01/b2m complex; WT
Excerpt: (§1) The biosensors were then dipped in assay buffer for a baseline. […] The biosensors were finally dipped into wells containing assay buffer to measure the dissociation rate for another 50 seconds. Referencing was completed by having a biosensor with no immobilized ligand dipped into analyte. Kinetic data was processed with Octet™ software using a 1:1 kinetic model with errors within 10%, X² below 3, and R² above 0.9.

[3] = target: T3, biotinylated refolded G2-pHLA …; test: BLI (ForteBio Octet HTX), biotinylated G2-pHLA captured on streptavidin SAX biosensor, antibody in solution, 1:2 Fit
[4] = target: T3, biotinylated refolded G2-pHLA …; test: BLI (Octet), biotinylated pHLA on streptavidin sensor, bivalent antibody as analyte (apparent affinity)
Excerpt: as §1

[5] = target: T2, HLA-PEPTIDE target A*01:01_… (G2) on …; test: flow cytometry, A375 cells engineered to express the G2 peptide
Description: Tumor cells engineered to express target peptide were harvested, washed in PBS, and stained with eBioscience Fixable Viability Dye eFluor 450 for 15 minutes at room temperature. Following another wash in PBS+1-2% FBS, cells were resuspended with the indicated molecules at varying concentrations and incubated for 1 hour at 4° C. After another wash, PE-conjugated goat anti-human IgG secondary antibody (Jackson ImmunoResearch) was added at 1:100 to 1:200 for 30 minutes at 4° C. After washing in PBS+1-2% FBS, cells were resuspended in PBS+1-2% FBS and analyzed by flow cytometry. Flow cytometric analysis was performed on the Attune NxT Flow Cytometer (ThermoFisher) using the Attune NxT Software. Data was analyzed using FlowJo.

[6] = target: T3, biotinylated refolded G2-pHLA …; test: BLI (ForteBio Octet HTX), biotinylated G2-pHLA captured on streptavidin SAX biosensor, antibody in solution, 1:1 Fit
Excerpt: as §1

[7] = target: biotinylated G5-pHLA (HLA-B*35:01 with …) (human); test: BLI (ForteBio Octet HTX), biotinylated G5-pHLA captured on streptavidin SAX biosensor, antibody in solution, 1:2 Fit
[8] = target: biotinylated G5-pHLA (HLA-B*35:01 with …) (human); test: BLI (ForteBio Octet HTX), biotinylated G5-pHLA captured on streptavidin SAX biosensor, antibody in solution, 1:1 Fit
Excerpt: as §1

T1 sequence (P07766 23-207): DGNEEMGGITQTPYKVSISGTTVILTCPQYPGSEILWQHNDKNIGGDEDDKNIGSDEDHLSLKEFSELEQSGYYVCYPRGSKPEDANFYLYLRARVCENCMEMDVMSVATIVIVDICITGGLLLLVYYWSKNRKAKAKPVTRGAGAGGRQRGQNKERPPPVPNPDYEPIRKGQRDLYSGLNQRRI

B1: 41-E07 hSP34x (Format 41 31E07-CD3 bispecific antibody) (bispecific antibody)
chain: QVQLVQSGAEVKKPGASVKVSCKASGFTFTNYLIHWVRQAPGQGLEWMGWINPNSGGTNYAQRLQGRVTMTRDTSTSTVYMELSSLRSEDTAVYYCARDYGAGNDYWGQGTLVTVSSGGGGSGGGGSDIQMTQSPSSLSASVGDRVTITCRASQEIRRWLAWYQQKPGKAPKLLIYAASNLQSGVPSRFSGSGSGTDFTLTISSLQPEDFATYYCQQSYSTPYTFGQGTKLEIKGGGGSEPKSSDKTHTCPPCPAPEFEGGPSVFLFPPKPKDTLMISRTPEVTCVVVDVSHEDPEVKFNWYVDGVEVHNAKTKPREEQYNSTYRVVSVLTVLHQDWLNGKEYKCKVSNKALPASIEKTISKAKGQPREPQVYTLPPCREEMTKNQVSLWCLVKGFYPSDIAVEWESNGQPENNYKTTPPVLDSDGSFFLYSKLTVDKSRWQQGNVFSCSVMHEALHNHYTQKSLSLSPGK
heavy: QVQLVQSGAEVKKPGASVKVSCKASGFTFTNYLIHWVRQAPGQGLEWMGWINPNSGGTNYAQRLQGRVTMTRDTSTSTVYMELSSLRSEDTAVYYCARDYGAGNDYWGQGTLVTVSSGGGGSGGGGSDIQMTQSPSSLSASVGDRVTITCRASQEIRRWLAWYQQKPGKAPKLLIYAASNLQSGVPSRFSGSGSGTDFTLTISSLQPEDFATYYCQQSYSTPYTFGQGTKLEIKGGGGSGGGGSEVQLVESGGGLVQPGGSLRLSCAASGFTFSTYAMNWVRQAPGKGLEWVGRIRSKYNNYATYYADSVKGRFTISRDDSKNTLYLQMNSLRAEDTAVYYCVRHGNFGDSYVSWFAYWGQGTLVTVSSASTKGPSVFPLAPSSKSTSGGTAALGCLVKDYFPEPVTVSWNSGALTSGVHTFPAVLQSSGLYSLSSVVTVPSSSLGTQTYICNVNHKPSNTKVDKRVEPKSCDKTHTCPPCPAPEFEGGPSVFLFPPKPKDTLMISRTPEVTCVVVDVSHEDPEVKFNWYVDGVEVHNAKTKPREEQYNSTYRVVSVLTVLHQDWLNGKEYKCKVSNKALPASIEKTISKAKGQPREPQVCTLPPSREEMTKNQVSLSCAVKGFYPSDIAVEWESNGQPENNYKTTPPVLDSDGSFFLVSKLTVDKSRWQQGNVFSCSVMHEALHNRFTQKSLSLSPGK
light: QAVVTQEPSLTVSPGGTVTLTCGSSTGAVTTSNYANWVQQKPGKSPRGLIGGTNKRAPGVPARFSGSLLGGKAALTISGAQPEDEADYYCALWYSNHWVFGGGTKLTVLRTVAAPSVFIFPPSDEQLKSGTASVVCLLNNFYPREAKVQWKVDNALQSGNSQESVTEQDSKDSTYSLSSTLTLSKADYEKHKVYACEVTHQGLSSPVTKSFNRGEC
notes: also called 41-31E07-hSP34x
EC50 (read off the curve) (CD3 on CD3+ Jurkat cells): ~6 nM | EC50 (read off the curve) [1]: ~2 nM

B2: Format 4-G2(1H11) hOKT3a (non-shortened linkers, without DSB) (bispecific antibody, human IgG1, kappa, N297Q)
chain: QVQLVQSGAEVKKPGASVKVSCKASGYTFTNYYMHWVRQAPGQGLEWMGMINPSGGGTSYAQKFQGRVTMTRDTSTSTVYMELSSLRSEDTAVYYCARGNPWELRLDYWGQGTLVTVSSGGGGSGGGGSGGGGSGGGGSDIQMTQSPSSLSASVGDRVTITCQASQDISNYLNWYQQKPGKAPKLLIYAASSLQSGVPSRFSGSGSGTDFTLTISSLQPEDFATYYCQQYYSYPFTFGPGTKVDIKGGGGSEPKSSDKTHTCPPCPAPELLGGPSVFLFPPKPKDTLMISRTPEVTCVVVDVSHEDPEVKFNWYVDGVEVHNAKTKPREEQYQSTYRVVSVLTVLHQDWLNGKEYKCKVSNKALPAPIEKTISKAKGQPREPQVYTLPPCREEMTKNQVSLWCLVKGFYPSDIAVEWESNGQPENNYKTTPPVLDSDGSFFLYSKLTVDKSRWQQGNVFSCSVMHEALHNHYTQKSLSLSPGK
heavy: QVQLVQSGAEVKKPGASVKVSCKASGYTFTNYYMHWVRQAPGQGLEWMGMINPSGGGTSYAQKFQGRVTMTRDTSTSTVYMELSSLRSEDTAVYYCARGNPWELRLDYWGQGTLVTVSSGGGGSGGGGSGGGGSGGGGSDIQMTQSPSSLSASVGDRVTITCQASQDISNYLNWYQQKPGKAPKLLIYAASSLQSGVPSRFSGSGSGTDFTLTISSLQPEDFATYYCQQYYSYPFTFGPGTKVDIKGGGGSGGGGSQVQLVQSGAEVKKPGASVKVSCKASGYTFTRYTMHWVRQAPGQGLEWMGYINPSRGYTNYNQKFKDRVTLTTDKSSSTAYMELSSLRSEDTAVYYCARYYDDHYSLDYWGQGTLVTVSSASTKGPSVFPLAPSSKSTSGGTAALGCLVKDYFPEPVTVSWNSGALTSGVHTFPAVLQSSGLYSLSSVVTVPSSSLGTQTYICNVNHKPSNTKVDKRVEPKSCDKTHTCPPCPAPELLGGPSVFLFPPKPKDTLMISRTPEVTCVVVDVSHEDPEVKFNWYVDGVEVHNAKTKPREEQYQSTYRVVSVLTVLHQDWLNGKEYKCKVSNKALPAPIEKTISKAKGQPREPQVCTLPPSREEMTKNQVSLSCAVKGFYPSDIAVEWESNGQPENNYKTTPPVLDSDGSFFLVSKLTVDKSRWQQGNVFSCSVMHEALHNRFTQKSLSLSPGK
light: DIQMTQSPSSLSASVGDRVTITCSASSSVSYMNWYQQKPGKAPKRLIYDTSKLASGVPSRFSGSGSGTDFTLTISSLQPEDFATYYCQQWSSNPFTFGQGTKLEIKRTVAAPSVFIFPPSDEQLKSGTASVVCLLNNFYPREAKVQWKVDNALQSGNSQESVTEQDSKDSTYSLSSTLTLSKADYEKHKVYACEVTHQGLSSPVTKSFNRGEC
notes: In solution a mixture of 2xscFv and diabody conformations; also called G2 Format 4 bispecific; G2(1H11)hOKT3a 2xscFv
koff [2]: 0.00397 s⁻¹ | Kd [3]: 1640 nM | koff [3]: 0.324 s⁻¹ | kon [3]: 198000 M⁻¹ s⁻¹ | Kd [4]: 18 nM | EC50 [5]: 9.8 nM | Kd [6]: 30.3 nM | koff [6]: 0.0277 s⁻¹ | kon [6]: 913000 M⁻¹ s⁻¹

B3: Format 4-G2(1H11) hOKT3a with engineered VH44/VL100 disulfide bond (DSB) (bispecific antibody, human IgG1, kappa, N297Q)
chain: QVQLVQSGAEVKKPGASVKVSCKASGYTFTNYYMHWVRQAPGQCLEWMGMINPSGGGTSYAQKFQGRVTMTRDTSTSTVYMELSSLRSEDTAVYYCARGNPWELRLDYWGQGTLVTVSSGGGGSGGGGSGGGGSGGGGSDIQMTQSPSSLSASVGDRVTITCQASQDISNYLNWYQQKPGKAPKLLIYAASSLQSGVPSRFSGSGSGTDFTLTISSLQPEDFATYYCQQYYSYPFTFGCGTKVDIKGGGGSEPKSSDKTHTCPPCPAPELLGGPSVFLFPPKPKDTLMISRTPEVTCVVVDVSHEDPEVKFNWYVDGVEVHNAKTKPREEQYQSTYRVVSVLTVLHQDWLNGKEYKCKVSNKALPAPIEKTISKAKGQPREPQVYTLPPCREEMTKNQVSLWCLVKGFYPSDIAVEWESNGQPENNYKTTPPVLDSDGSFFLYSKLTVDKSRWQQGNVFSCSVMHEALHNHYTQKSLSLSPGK
heavy: QVQLVQSGAEVKKPGASVKVSCKASGYTFTNYYMHWVRQAPGQCLEWMGMINPSGGGTSYAQKFQGRVTMTRDTSTSTVYMELSSLRSEDTAVYYCARGNPWELRLDYWGQGTLVTVSSGGGGSGGGGSGGGGSGGGGSDIQMTQSPSSLSASVGDRVTITCQASQDISNYLNWYQQKPGKAPKLLIYAASSLQSGVPSRFSGSGSGTDFTLTISSLQPEDFATYYCQQYYSYPFTFGCGTKVDIKGGGGSGGGGSQVQLVQSGAEVKKPGASVKVSCKASGYTFTRYTMHWVRQAPGQGLEWMGYINPSRGYTNYNQKFKDRVTLTTDKSSSTAYMELSSLRSEDTAVYYCARYYDDHYSLDYWGQGTLVTVSSASTKGPSVFPLAPSSKSTSGGTAALGCLVKDYFPEPVTVSWNSGALTSGVHTFPAVLQSSGLYSLSSVVTVPSSSLGTQTYICNVNHKPSNTKVDKRVEPKSCDKTHTCPPCPAPELLGGPSVFLFPPKPKDTLMISRTPEVTCVVVDVSHEDPEVKFNWYVDGVEVHNAKTKPREEQYQSTYRVVSVLTVLHQDWLNGKEYKCKVSNKALPAPIEKTISKAKGQPREPQVCTLPPSREEMTKNQVSLSCAVKGFYPSDIAVEWESNGQPENNYKTTPPVLDSDGSFFLVSKLTVDKSRWQQGNVFSCSVMHEALHNRFTQKSLSLSPGK
light: DIQMTQSPSSLSASVGDRVTITCSASSSVSYMNWYQQKPGKAPKRLIYDTSKLASGVPSRFSGSGSGTDFTLTISSLQPEDFATYYCQQWSSNPFTFGQGTKLEIKRTVAAPSVFIFPPSDEQLKSGTASVVCLLNNFYPREAKVQWKVDNALQSGNSQESVTEQDSKDSTYSLSSTLTLSKADYEKHKVYACEVTHQGLSSPVTKSFNRGEC
notes: also called 4-G2(1H11)-H44/L100 hOKT3a-TM; Format 4 G2(1H11)-hOKT3_DSBH44/L100
koff [2]: 0.025 s⁻¹ | Kd [4]: 35.1 nM | EC50 [5]: 1750 nM

B4: 41-G5(1C12) hOKT3a (Format 4-G5(1C12) hOKT3a with shortened 10 amino acid L1 and L2 linkers) (bispecific antibody, human IgG1, kappa, N297Q)
chain: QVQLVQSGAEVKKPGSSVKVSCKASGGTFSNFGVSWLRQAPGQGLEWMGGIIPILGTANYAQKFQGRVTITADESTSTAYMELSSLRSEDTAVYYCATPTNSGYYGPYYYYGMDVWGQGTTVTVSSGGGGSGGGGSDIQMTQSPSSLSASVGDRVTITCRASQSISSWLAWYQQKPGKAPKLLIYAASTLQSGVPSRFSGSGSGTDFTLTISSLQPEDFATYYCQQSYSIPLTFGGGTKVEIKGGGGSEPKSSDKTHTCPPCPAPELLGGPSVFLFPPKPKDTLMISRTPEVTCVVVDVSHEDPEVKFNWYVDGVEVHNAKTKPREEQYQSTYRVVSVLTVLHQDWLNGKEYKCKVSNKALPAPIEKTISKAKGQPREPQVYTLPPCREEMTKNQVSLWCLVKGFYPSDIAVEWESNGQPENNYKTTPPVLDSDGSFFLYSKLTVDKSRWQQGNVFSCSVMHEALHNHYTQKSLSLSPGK
heavy: QVQLVQSGAEVKKPGSSVKVSCKASGGTFSNFGVSWLRQAPGQGLEWMGGIIPILGTANYAQKFQGRVTITADESTSTAYMELSSLRSEDTAVYYCATPTNSGYYGPYYYYGMDVWGQGTTVTVSSGGGGSGGGGSDIQMTQSPSSLSASVGDRVTITCRASQSISSWLAWYQQKPGKAPKLLIYAASTLQSGVPSRFSGSGSGTDFTLTISSLQPEDFATYYCQQSYSIPLTFGGGTKVEIKGGGGSGGGGSQVQLVQSGAEVKKPGASVKVSCKASGYTFTRYTMHWVRQAPGQGLEWMGYINPSRGYTNYNQKFKDRVTLTTDKSSSTAYMELSSLRSEDTAVYYCARYYDDHYSLDYWGQGTLVTVSSASTKGPSVFPLAPSSKSTSGGTAALGCLVKDYFPEPVTVSWNSGALTSGVHTFPAVLQSSGLYSLSSVVTVPSSSLGTQTYICNVNHKPSNTKVDKRVEPKSCDKTHTCPPCPAPELLGGPSVFLFPPKPKDTLMISRTPEVTCVVVDVSHEDPEVKFNWYVDGVEVHNAKTKPREEQYQSTYRVVSVLTVLHQDWLNGKEYKCKVSNKALPAPIEKTISKAKGQPREPQVCTLPPSREEMTKNQVSLSCAVKGFYPSDIAVEWESNGQPENNYKTTPPVLDSDGSFFLVSKLTVDKSRWQQGNVFSCSVMHEALHNRFTQKSLSLSPGK
light: DIQMTQSPSSLSASVGDRVTITCSASSSVSYMNWYQQKPGKAPKRLIYDTSKLASGVPSRFSGSGSGTDFTLTISSLQPEDFATYYCQQWSSNPFTFGQGTKLEIKRTVAAPSVFIFPPSDEQLKSGTASVVCLLNNFYPREAKVQWKVDNALQSGNSQESVTEQDSKDSTYSLSSTLTLSKADYEKHKVYACEVTHQGLSSPVTKSFNRGEC
notes: also called 4-G5(1C12)_10AAL hOKT3a; G5(1C12)_10AAL
Kd [7]: 16.1 nM | koff [7]: 0.00652 s⁻¹ | kon [7]: 405000 M⁻¹ s⁻¹ | Kd [8]: 2.2 nM | koff [8]: 0.00279 s⁻¹ | kon [8]: 1.27e+06 M⁻¹ s⁻¹
